In US20260158160A1 (MACFARLANE BURNET INSTITUTE FOR MEDICAL RESEARCH AND PUBLIC …, published 2026):
Read-outs that look alike come from different tables or passages of the source.

What was measured:
[1] = biological target: T1, dimeric rsFcγRIIa (H131 allelic form) (UniProt P12318 34-217); test: flow cytometry: Ramos-S cells opsonised with the ACE2-Fc protein, biotinylated dimeric rsFcγRIIa probe, streptavidin-APC
T1 construct: also called dimeric recombinant soluble FcγRIIa
T1 sequence: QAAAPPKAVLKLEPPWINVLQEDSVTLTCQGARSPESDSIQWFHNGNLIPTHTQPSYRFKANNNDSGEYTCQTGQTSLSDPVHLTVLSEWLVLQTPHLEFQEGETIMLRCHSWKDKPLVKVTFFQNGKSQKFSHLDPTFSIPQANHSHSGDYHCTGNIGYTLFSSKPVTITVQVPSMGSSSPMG

[2] = biological target: human death receptor 5 (DR5) on cells (human, UniProt O14763 56-440); test: cell-based or functional assay
[3] = biological target: T2, FcγRIIIa V158 on NF-κB-RE nanoluciferase reporter cells (UniProt P08637 17-254); test: cell-based or functional assay
[4] = biological target: T2, FcγRIIIa V158 on NF-κB-RE …; test: cell-based or functional assay; remark: listed apart in the source
[5] = biological target: T3, SARS-CoV-2 spike protein expressed on Ramos-S cells (SARS-CoV-2, UniProt P0DTC2 14-1273); test: flow cytometry on Ramos-S cells
T3 construct: whole, on cells; also called S protein; Ramos cells expressing transfected spike protein

T2 sequence (P08637 17-254 F176V limits assumed): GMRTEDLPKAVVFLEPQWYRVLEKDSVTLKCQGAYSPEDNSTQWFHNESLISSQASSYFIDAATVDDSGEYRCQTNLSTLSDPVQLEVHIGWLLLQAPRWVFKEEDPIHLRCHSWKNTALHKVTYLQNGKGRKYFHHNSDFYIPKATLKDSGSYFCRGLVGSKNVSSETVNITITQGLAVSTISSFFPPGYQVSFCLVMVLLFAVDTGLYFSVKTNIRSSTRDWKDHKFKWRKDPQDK

B1: EflACE2-Fc-H429Y (Fc fusion)
chain: ETGSTIEEQAKYFLDKFNHEAEDLFYQSSLASWNYNTNITEENVQNMNNAGDKWSAFLKEQSTTAQMYPLQEIQNLTVKLQLQALQQNGSSVLSEDKSKRLNTILNTMSTIYSTGKVCNPDNPQECLLLEPGLNEIMANSLDYNERLWAWESWRSEVGKQLRPLYEEYVVLKNEMARANHYEDYGDYWRGDYEVNGVDGYDYSRGQLIEDVEHTFEEIKPLYEHLHAYVRAKLMNAYPSYISPIGCLPAHLLGDMWGRFWTNLYSLTVPFGQKPNIDVTDAMVDQAWDAQRIFKEAEKFFVSVGLPNMTQGFWEYSMLTDPGNVQKAVCHPTAWDLGKGDFRILMCTKVTMDDFLTAHHEMGHIQYDMAYAAQPFLLRNGANEGFHEAVGEIMSLSAATPKHLKSIGLLSPDFQEDNETEINFLLKQALTIVGTLPFTYMLEKWRWMVFKGEIPKDQWMKKWWEMKREIVGVVEPVPHDETYCDPASLFHVSNDYSFIRYYTRTLYQFQFQEALCQAAKHEGPLHKCDISNSTEAGQKLFNMLRLGKSEPWTLALENVVGAKNMNVRPLLNYFEPLFTWLKDQNKNSFVGWSTDWSPYADQSIKVRISLKSALGDRAYEWNDNEMYLFRSSVAYAMRQYFLKVKNQMILFGEEDVRVANLKPRISFNFFVTAPKNVSDIIPRTEVEKAIRMSRSRINDAFRLNDNSLEFLGIQPTLGPPNQPPVSGGGGSTHTCPPCPAPELLGGPSVFLFPPKPKDTLMISRTPEVTCVVVDVSHEDPEVKFNWYVDGVEVHNAKTKPREEQYNSTYRVVSVLTVLHQDWLNGKEYKCKVSNKALPAPIEKTISKAKGQPREPQVYTLPPSREEMTKNQVSLTCLVKGFYPSDIAVEWESNGQPENNYKTTPPVLDSDGSFFLYSKLTVDKSRWQQGNVFSCSVMYEALHNHYTQKSLSLSPGK
notes: also called EflACE2-Fc-H429Yoli; Yoli
Question: Does B1 bind [1]?
Answer: no binding (tested: 5 µg/ml (opsonising protein))

B2: TDR5-A2WT (antibody)
heavy: QVQLVQSGAEVKKPGASVKVSCKASGFNIKDTHMHWVRQAPGQRLEWIGRIDPANGNTEYDQKFQGRVTITVDTSASTAYMELSSLRSEDTAVYYCARWGTNVYFAYWGQGTLVTVSSASPTSPKVFPLSLDSTPQDGNVVVACLVQGFFPQEPLSVTWSESGQNVTARNFPPSQDASGDLYTTSSQLTLPATQCPDGKSVTCHVKHYTNPSQDVTVPCPVPPPPPCCHPRLSLHRPALEDLLLGSEANLTCTLTGLRDASGATFTWTPSSGKSAVQGPPERDLCGCYSVSSVLPGCAQPWNHGETFTCTAAHPELKTPLTANITKSGNTFRPEVHLLPPPSEELALNELVTLTCLARGFSPKDVLVRWLQGSQELPREKYLTWASRQEPSQGTTTFAVTSILRVAAEDWKKGDTFSCMVGHEALPLAFTQKTIDRLAG
light: DIQLTQSPSSLSASVGDRVTITCSASSSVSYMYWYQQKPGKAPKPWIYRTSNLASGVPSRFSGSGSGTDFTLTISSLQPEDFATYYCQQYHSYPPTFGGGTKVEIKRTVAAPSVFIFPPSDEQLKSGTASVVCLLNNFYPREAKVQWKVDNALQSGNSQESVTEQDSKDSTYSLSSTLTLSKADYEKHKVYACEVTHQGLSSPVTKSFNRGEC
Question: B2 was tested. Which “death of Colo205 cells, EC50 as dilution of culture supernatant” value [2] did it give?
Answer: ~0.167 dilution

B3: TDR5-A2HF (antibody)
heavy: QVQLVQSGAEVKKPGASVKVSCKASGFNIKDTHMHWVRQAPGQRLEWIGRIDPANGNTEYDQKFQGRVTITVDTSASTAYMELSSLRSEDTAVYYCARWGTNVYFAYWGQGTLVTVSSASPTSPKVFPLSLDSTPQDGNVVVACLVQGFFPQEPLSVTWSESGQNVTARNFPPSQDASGDLYTTSSQLTLPATQCPDGKSVTCHVKHYTNPSQDVTVPCPVPPPPPCCHPRLSLHRPALEDLLLGSEANLTCTLTGLRDASGATFTWTPSSGKSAVQGPPERDLCGCYSVSSVLPGCAQPWNHGETFTCTAAHPELKTPLTANITKSGNTFRPEVHLLPPPSEELALNELVTLTCLARGFSPKDVLVRWLQGSQELPREKYLTWASRQEPSQGTTTFAVTSILRVAAEDWKKGDTFSCMVGFEALPLAFTQKTIDRLAG
light: DIQLTQSPSSLSASVGDRVTITCSASSSVSYMYWYQQKPGKAPKPWIYRTSNLASGVPSRFSGSGSGTDFTLTISSLQPEDFATYYCQQYHSYPPTFGGGTKVEIKRTVAAPSVFIFPPSDEQLKSGTASVVCLLNNFYPREAKVQWKVDNALQSGNSQESVTEQDSKDSTYSLSSTLTLSKADYEKHKVYACEVTHQGLSSPVTKSFNRGEC
Question: For B3, which “death of Colo205 cells, EC50 as dilution of culture supernatant” value [2] is on record?
Answer: > 0.00195 dilution

B4: rituximab-WT (antibody, human IgG1, kappa)
heavy: not shown
light: QIVLSQSPAILSASPGEKVTMTCRASSSVSYIHWFQQKPGSSPKPWIYATSNLASGVPVRFSGSGSGTSYSLTISRVEAEDAATYYCQQWTSNPPTFGGGTKVEIKRTVAAPSVFIFPPSDEQLKSGTASVVCLLNNFYPREAKVQWKVDNALQSGNSQESVTEQDSKDSTYSLSSTLTLSKADYEKHKVYACEVTHQGLSSPVTKSFNRGEC
Question: Which results are given for B4?
Answer: EC50 (read off the curve), FcγRIIIa reporter activation [3]: ~0.04 nM; EC50 (read off the curve), FcγRIIIa reporter activation [4]: ~0.03 nM

B5: CC40.8-WT (antibody)
heavy: not shown
light: SYELTQPPSVSVSPGQTARITCSGDALPKRYAYWYQQKSGQAPILVIYEDKKRPSGIPERLSGSKSGTVATLTISGAQVEDEADYYCYSTDSSGNHAVFGGGTQLTVLGQPKAAPSVFIFPPSDEQLKSGTASVVCLLNNFYPREAKVQWKVDNALQSGNSQESVTEQDSKDSTYSLSSTLTLSKADYEKHKVYACEVTHQGLSSPVTKSFNRGEC
Question: Does B5 bind [5]?
Answer: binds
